These results are taken from doi:10.1101/2023.09.18.557803, “Structure of the portal complex from Staphylococcus aureus pathogenicity island 1 transducing particles in situ and in solution” (bioRxiv, 2023).

For series [1], the target named is bacteriophage 80α portal protein (gp42), expressed in E. coli with a C-terminal hexahistidine tag (Staphylococcus aureus bacteriophage 80α). Briefly: cryo-EM structure; portals expressed in E. coli, in solution (25 mM HEPES pH 7.4, 0.1 M NaCl); 2D classification and C13 reconstruction in RELION-3, 2.4 Å.
In series [2] the target is bacteriophage 80α portal protein (gp42) in situ in SaPI1 virions (Staphylococcus aureus bacteriophage 80α). Put plainly: cryo-EM structure; focused reconstruction with C12 symmetry of the portal complex in situ in purified full and empty SaPI1 virions (assembled in S. aureus), after signal subtraction of the capsid; 3.2 Å (full) and 3.5 Å (empty).
Series [3] concerns the molecule itself. Briefly: cryo-EM structure; icosahedral reconstruction of full and empty capsids of purified SaPI1 virions (assembled in S. aureus); 3.1 Å (full, used to model CP) and 3.2 Å (empty).

For “bacteriophage 80α portal protein (gp42), expressed in E. coli with a C-terminal hexahistidine tag (natural protein)”, the stoichiometry N (as a rule, the number of molecules, sites or subunits per partner or assembly) in series [1] was found to be 13.
As to “bacteriophage 80α portal protein (gp42) in situ in SaPI1 virions (natural protein)”, the stoichiometry N in series [2] worked out at 12.

B1: bacteriophage 80α capsid protein (gp47) in mature SaPI1 capsids (natural protein, Staphylococcus aureus bacteriophage 80α, UniProt A4ZFB3 15-324, looked up)
chain: ASNNVKPQVFNPDNVMMHEKKDGTLMNEFTTPILQEVMENSKIMQLGKYEPMEGTEKKFTFWADKPGAYWVGEGQKIETSKATWVNATMRAFKLGVILPVTKEFLNYTYSQFFEEMKPMIAEAFYKKFDEAGILNQGNNPFGKSIAQSIEKTNKVIKGDFTQDNIIDLEALLEDDELEANAFISKTQNRSLLRKIVDPETKERIYDRNSDSLDGLPVVNLKSSNLKRGELITGDFDKLIYGIPQLIEYKIDETAQLSTVKNEDGTPVNLFEQDMVALRATMHVALHIADDKAFAKLVPADKRTDSVPGEV
notes: capsid protein gp47 of Staphylococcus aureus bacteriophage 80α, cut product: the first 14 residues are removed by the Prp protease; domains printed as N-arm 15-67, E-loop 68-104, P-domain 105-167 and 248-307, A-domain 168-247 and 308-324; residues 16-313 modelled; 240 copies in the icosahedral T=4 capsid; in the real virion five subunits at one vertex are replaced by the portal; also called CP; …
With B1, in series [3], the “stoichiometry N” value came to 240.
